# Measurements: publication PMC13503762 (Nature Communications, 2026)
# B1: short conformation Fab (scFab) (Fab, V domains shown)
# VH: EVQLQQSGPELVKPGASMKISCKTSGYSFTGYTMNWVKQSHGKNLEWIGLINPYNGDTSYNQKFKGKATLTVDKSSSTAYMELLSLTSEDSAVYYCEVINTYWGQGTLVTVSA
# VL: DIVMTQSPASLAVSLGQRATISCKASQSIDYDGDNYMNWYQQKPGQPPKLLIYTTSNLESGIPARFSGSGSGTDFTLNIHPVEEGDAATYYCQQNNEDPYTFGGGTKLEIK
# notes: also called short conformation-selective Fab; Fab targeting M_(short)
# Target: SARS-CoV-2 M protein (purified, in LMNG/CHS detergent) (SARS-CoV-2, UniProt P0DTC5)
# Experiment: cryo-EM structure
# Conditions: both partners purified
binder,measurement,value
B1,binding result,binds
